Data published in PMC9342958.

B1: BCL10 full-length fused to mEos3.1 [human] / itself (parent)
chain: MEPTAPSLTEEDLTEVKKDALENLRVYLCEKIIAERHFDHLRAKKILSREDTEEISCRTSSRKRAGKLLDYLQENPKGLDTLVESIRREKTQNFLIQKITDEVLKLRNIKLEHLKGLKCSSCEPFPDGATNNLSRSNSDESNFSEKLRASTVMYHPEGESSTTPFFSTNSSLNLPVLEVGRTENTIFSSTTLPRPGDPGAPPLPPDLQLEEEGTCANSSEMFLPLRSRTVSRQ

Variants of: B1
Assay: DAmFRET (Weibull fit) in yeast cells, homotypic self-assembly
Details: with itself; read off a plot

Row | screen value | Variant
1 | 0.34 | chain 1 R58G
2 | 0.35 | chain 1 R58L
3 | 0.38 | chain 1 R58Q
